{"source": "the DeepSol protein solubility set", "experiment": "soluble on expression in E. coli; label from the status in PepcDB or PDB records"}
{"sequence": "MTLSGGTIDILKTRSLAKLQGSKEVMKQKLEIPIHGSVTDNIFSEVRDSFRRNFTEGWEKAGAAFCVIHKGKVIVDLWGGYADKECFKEWKEDTISTIFSCTKSVTAICFAILVDRGLLKYSDKVTKYWPEFGQNGKQDITIEMVLSHTAGLPYFPGVKFTEEDLTDNNKLSHMIENLKPVFAPGTRTAYHALTFGWLTDQIFRRVDSQKRTVGQFFKDEIATKHYIDIHIGECSNEENRLARLFKCPATLVSREIAYDRSILKLARYYYNPRGLFAAARRNLSLHGSDFTMFNNSDLRVVGQPAVNGIGSARAMAQLHQLVLDGTLLSKETFDIIKHPRKMTSFDYLIGEPQNKEHGFTYFKSPLNTWQFGHPGVGGQMVRVDVENDLIVAYLTNGMKTAGCEDHVFTFNRLQRKVYECLKRIPKFELPPPEDIVENE", "values": [{"measurement": "soluble on expression in E. coli", "value": "not soluble"}]}
{"sequence": "MPTKVLVNATYLHSYFREWVKGNIWIHGDRIVYAGERLPDRIDESCEIIDCRGYVLVPGYIEPHVHPFQLYNPHSFARYAAMYGTTTLLNDNLFFLLQLEHHHHHH", "values": [{"measurement": "soluble on expression in E. coli", "value": "not soluble"}]}
{"sequence": "MQNDVFFDLTQHGFSEDEASQLMVYGQELELPTRHILSHQGEFSSHIYFILEGLCHASYLTEKGKEFSKEFYWEKDWVIGFESVIKGQPSPYLLETLTACHLFCLPIEALHQWRAEKHSIYLKLLETQLMNKENKERFMLLYSPEERYQLFCHHYPDLEQRITDSQIAAYLGITAISLSRIKARLAKDNK", "values": [{"measurement": "soluble on expression in E. coli", "value": "not soluble"}]}
{"sequence": "MLKQSGKLRADATPAEVEQAVRDYLRQKAIHMPRGKGELYDKEAKRAEAMQDGQQTNGVLNGKGKKLGQSKTASVPSVKPEPWNGGKRVDRVLVLLIEYPDFPHNNIQPTETDMYYKDYTREHYEDMIFGGDDGYYDGPNGEKLISVKKYYEEQSGGSYSIEGKVAGWYQAKYPAKYYGGNVPAPDGNDANPRALVREALAAAAKDPSINLREFDQEDRYDLDGDGNYREPDGLIDHLMIIHSSVGEEAGGGSLGGAAIWSHRWNLGSVYRIPNTTTDVPYWRGQLAAYDYTIEPADGAAGVFAHEYGHDLGLPDEYDTIYSGLGEPIAYWSIMSSGSWAGRIPGTEPTGFSAWAKQFLQSTMPGSNWLSGTTVEWNEVTQNGVEVVLDEASTKGTNNDAVRINLLKKETVVTIPPSGAYAYFSGSGNNLDHTMSTTIDLTGASKATLAFDTWYAIEKDWDYGAVEVKPHGSNEWTTIQGNITTTNNPYGQNPGNGITGTSNGWVKAEFDLSAYAGQTIDLRFHYITDVAVSEAGWYFDNIQVTADGAAVLADGAEGDSSFVMTGFEKSNGKRYSDHYYLLEWRNHRGVDEGLAHILRGGRLLSYDPGLVVWYVDEGYDNNWTGVHPGEGFLGVVDADQHTLKWSGNTTASTRYQVHDAAFSLQKGASFRVAINGSQLIDNDTSPTPVFDDSRSYDNKGAVDAGRNVPNYGLKIRVIGESADRTAARVLIYR", "values": [{"measurement": "soluble on expression in E. coli", "value": "not soluble"}]}
{"sequence": "MLHLIVLLVALSSAVTAGRPRRALDGLDGSGFGFDKRALNSLDGAGFGFEKRALNSLDGQGFGFEKRALDGLDGAGFGFDKRALNSLDGAGFGFEKRALDGLDGSGFGFDKRALNSLDGAGFGFEKRALNSLDGAGFGFEKRALDGLDGAGFGFDKRALNSLDGAGFGFEKRALDGLDGAGFGFDKRALNSLDGNGFGFDKRTFKHSSNKLRSVFRNLKGFKQH", "values": [{"measurement": "soluble on expression in E. coli", "value": "not soluble"}]}
{"sequence": "MGSDKIHHHHHHMLSMAGQVIAEDTAKAIEAAVHHEARLERDKARDGSRHPEAILNFFEVAPGQRVLDLFSGGGYYSELLARVVGEQGSVLVHNNQAYLPFAKEDLAERHYQERLPNAEVIISEADELQLPAASFDRIFFILGFHDTYYHEPGWPAIDRERLLQQMFTSLKPGGIVAIIDHDAAPESDTDTAHELHRLAKRHVVDAMEAAGFKLQGSLAVLENPEDKLTLSAFDEAVRGKTSRYVLMFVKPKL", "values": [{"measurement": "soluble on expression in E. coli", "value": "not soluble"}]}
{"sequence": "MEKYEEVLVSIRQIIRAIDLHSKKLSKESGLTAPQLILMRAINELDNVTIKQLSNHTNMSQATATTILDRLERNQLVERRRSVEDKRKVHAVLTEKGEEALRQAPTPLQEHFINRFQKLEEWEQTLLLSSVQRISTMMNAEDIDVAPLLEIGSITKPE", "values": [{"measurement": "soluble on expression in E. coli", "value": "not soluble"}]}
{"sequence": "MEADGLGCAVCVLTGASRGFGRALAPQLARLLSPGSVMLVSARSESMLRQLKEELGAQQPDLKVVLAAADLGTEAGVQRLLSAVRELPRPEGLQRLLLINNAATLGDVSKGFLNVNDLAEVNNYWALNLTSMLCLTSGTLNAFQDSPGLSKTVVNISSLCALQPYKGWGLYCAGKAARDMLYQVLAAEEPSVRVLSYAPGPLDNDMQQLARETSKDPELRSKLQKLKSDGALVDCGTSAQKLLGLLQKDTFQSGAHVDFYD", "values": [{"measurement": "soluble on expression in E. coli", "value": "soluble"}]}
{"sequence": "SADISLDELIRKRGAAAKGRLNARPGVGGVRSRVGIQQGLLSQSTRTATFQQRFDARQKIGLSDARLKLGVKDAREKLLQKDARFRIKGKVQDAREMLNSRKQQTTVPQKPRQVADAREKISLKRSSPAAFINPPIGTVTPALKLTKTIQNLYDLDEDDDGIASVPTKQMKFAASGGFLHHMAGLSSSKLSMSKALPLTKVVQNDAYTAPALPSSIRTKALPVLTSPGT", "values": [{"measurement": "soluble on expression in E. coli", "value": "soluble"}]}
{"sequence": "MGSDKIHHHHHHMIQITPFLDSKRKTPLYVQLYQYIKEGIESGQLKSDTFLPSIRELALHLRVSKNTVEGAYQQLIAEGYVESIPRVGLKILELEATFLCDKGGKQLQNVTMGEIQREHKSIEFDFVYGEIDTAHLPLKVWKRHVQEVLKGASEELLMYGDPFGDWHLRQELSHYLLQSRGVSCRPEQVVITAGTQHAVSLLCQLLSLHGSTVAFEDPGYNGVRSVFINQGCRIAPIPIEADGLSLSRLHESHANIVYVTPSHQLPCGMILPVHKRSLLLEWAYEHEGYIVEDDYDSEFRYQGQPIPALKALDQNEKVIYLGTFSKSFLPSIRVSYMVLPGELVPLYQQKLANYNQAASQLIQRALYTFIKDGDFQRHIRRMKKVYQSKHHTLLKSVKTYLGDRVTVIGEKSGLHVLLNVPGREDHELIEKAMACGVKVYSTKTFWYNPKNQCSSFIMLGFGKLSEEAIKKGIRRLQQAWF", "values": [{"measurement": "soluble on expression in E. coli", "value": "not soluble"}]}
{"sequence": "MLSIVCPPLSAQWAENFDHITALTSPPWRGQIADFAIIKKQLKLYVEYPDDLNESRIAITVPYFKTTTWKGDVKLDFRPTINNYLYCYLYCYGEISDSEFDYVALRWGSGSKGVDLLDVRLRVLPSGESSIVRSDILIDGSAYPLGTKPFTSFTVTYAVGSGWQLWVNGANDTGNETVLIGSSSFDVESPFQSGGLGIDCFYTKSRSKAFSFDNLSVSEGAVSPPEEEEEPIPLGKPTLNELMANPLEGGSEYIELYNPTDKPVVPSKFAIGILRNGSYTTTTALPTVADTLYPGQYIVFAKKSEGVTDFYPQAQNVVTMSNLPQLANKGFTIGLFEEGLDQPLEEVVYSPKMLGEGNVTRRGVSLERISFETPASDPTNWAGGLPSAGYATPGYLNSQSSNADTTQLGLPNNETEGNGKSYLPPASIAEE", "values": [{"measurement": "soluble on expression in E. coli", "value": "not soluble"}]}
{"sequence": "MTETATARRSRITPEREAELYEAVLDLLREVGYDALTMDAVAARTRSSKATLYRQWGGKPELVVKAIRHNKPGEIGDVDTGSLRGDLHALMVREDDCTMEQNSALMRGVAMALHQNPDLRQAFREQLIEPEMAEFQRVLQRAVDRGEIRADCPALDFLVHMMVGGFATRTLLDDQPPTREFLASYIDAVILPALGVSTH", "values": [{"measurement": "soluble on expression in E. coli", "value": "not soluble"}]}
{"sequence": "MNQSADAKPPKPDGRVTRSVTVRKLGPGANKEKQESDNSQKKKTVNAAAQKADTSSKRNSGNPQKPKKPKHEAIKVSTRRLSASSKPPPPAPQNVPKMNSFVGNGNTRMIMVQTTPQAKKLEAEMKLRMQNKGESPEASLLVLESRTPEPTVQQVLEELQNDVVNPKSSTTPEGYSFELRNLKTPEIPAMPTPLACSPAAARNSPVVKKIQNHVPNVTLVPSEPREPSLRKLHLGTLKLKFLAFPLTTGFKKLQKLQDPLARIKLATEKLKERRAQLDTQKKHTMFLPEAFIGPHFNETIASGFYALFNASHFQVHYNSEGKRLGSGTMCVLKNQMNGARDWFAGNTWRAVKMMYMRTRDAEKHKNSEVKLFVEKLPDWSTEQLEEKLRNEFKLSDFQLLYDYKGNNLRSAIVLLKYPDAINLCNSIRSNPTVFGKEWHPRVFEVLDVAVQPPIDK", "values": [{"measurement": "soluble on expression in E. coli", "value": "not soluble"}]}
{"sequence": "MNEKTINEQYAYIRTLLEEKRLKEALMQLESLLWQCPDWDLRTRLEQLQTSYKYMLEYMRQGANDPERWNVYRKLIADTWEIADRSRLLMLDNASSRYYHEVRRTPRPESLSAYTLKKLLHMLESFNDDLAVSGLLSDEKMDEVLKRHEETLKYMFLQTWTNSAWTPEEEEDAQSMLTSELLPVNDLCLFISAVTLSLMECFDLRKIMWLLDAYRHPDVNAGQRALVGVIFIFHIYKNRLSLYNDLVKRVDLMDEISPFKEDVARIYHQMLLCQETEKIDKKMREEIIPEMLKNVSSMRNMRFGFEENEDENDDKNPDWADAFEQSGLGDKLREMNELQLEGADVYMSTFAALKSYPFFREVQNWFYPFSKQQSDVIKQLKQEGNEKNTLLDLILQSGFFSNSDKYSLFFTIRQLPKAQQDMMLSQLGEQQVAELTEKSSAETMKKFNERPGTVSNQYLHDLYRFFKLSVRRHEFRDIFKEKLDLHHIPALSNVLYSEDILFPIADFYLKKERWNEAIEVYEEMETIGALQERGAEYYQKLGYALQKSKKYAEAIGAYLKADTLKPDNIWNNRHLAICYRLNRNYQAALSYYKKVEEATPEDTNVIFHIGSCLAELGQYEEAANYFFKLDFIESNCIKAWRGIGWCSFISRKYEQAMKYYEKIIEQKPLAIDYMNAGHVAWTMGDIQKAAALYGKSITANGNRERFLEMFRKDEEALLKQGIQEEDIPLMLDLL", "values": [{"measurement": "soluble on expression in E. coli", "value": "not soluble"}]}
{"sequence": "MEQQSYTIIDETGAHARPATMLVQTASKFDSDIQLEYNGKKVNLKSIMGVMSLGVGKDAEITIYADGSDEADAIQAITDVLSKEGLTE", "values": [{"measurement": "soluble on expression in E. coli", "value": "soluble"}]}
{"sequence": "MRAHTLSRQLREGNLFAEQCPSREVLKHVTSRWGVLILVALRDGTHRFSDLRRKMGGVSEKMLAQSLQALEQDGFLNRVSYPVVPPHVEYSLTPLGEQVSDKVAALADWIELNLPQVLAQRERLSDGG", "values": [{"measurement": "soluble on expression in E. coli", "value": "soluble"}]}
{"sequence": "MGSDKIHHHHHHMKNRFLIICTVLFLSSCLAYGQEQASVTNDFSENKQGCIQHPWQGKKVGYIGDSITDPNCYGDNIKKYWDFLKEWLGITPFVYGISGRQWDDVPRQAEKLKKEHGGEVDAILVFMGTNDYNSSVPIGEWFTEQEEQVLSAHGEMKKMVTRKKRTPVMTQDTYRGRINIGITQLKKLFPDKQIVLLTPLHRSLANFGDKNVQPDESYQNGCGEYIDAYVQAIKEAGNIWGIPVIDFNAVTGMNPMVEEQLIYFYDAGYDRLHPDTKGQERMARTLMYQLLALPVAF", "values": [{"measurement": "soluble on expression in E. coli", "value": "not soluble"}]}
{"sequence": "MSRDTGDNLDRNQSGNLPMANVMDAYLSRRSVMRGSLGAAIAMIAGTGLTGCFDGGGSDHDDPVTEPPVTEPPVTEPEVPKLALGFQSIPGSRTDACVVAAGYSAYVLAPWGTPLNSNGNPWKSDGSNTSTDQANAMGMHHDGMHFFPINGSSEDGLLAINFEYIDTAALHPAGPTTDVNGKRPVEEVRKEINAHGAGVVRLQKINGRWQVVDNDPLNRRFTTASRMEITGPLRGTDHVKTKYSTAGTHCRGTNNNCGNGYTPWGTYLTCEENWPGIFVNKGTRPEDQRRIGVGTSSGQYKWESAAGDASEVDDEFARFDVTVKGASATDDYRNEASTYGYIVEIDPYNSSTLATKRTALGRFRHEGCAPGLPVAGKPLVWYMGDDSNNEYLYKWVSTAVWDPADATPADRLATGAKYLDQGKLYVARFNADGTGVWLLLDVATATTAGSTLGALYGDLPGIILNTRGAGDAVGATPMDRPEWTTVNPLNGDVYLTLTNNSARTPDKVDAANPRGPNRHGHIIRWHDSDDQLSFTWDIFVFGANAAGTADINRSGLTELNQFASPDGMSFDSRGVLWFETDNGETTLTDYTNDQLLAVIPTDLVDASGKQVPVNAQNQVDLRRFFVGPNGCEVTGITFTPDNKTLFVNIQHPDNWPYTDKATDATPAGATVRPRASTVVIQRIDGGEIGTV", "values": [{"measurement": "soluble on expression in E. coli", "value": "not soluble"}]}
{"sequence": "MKKKDRYTISELAREFEISTRTIRYYEEIGLLNPERTPGNQRIFSRKDRAKLKLILRGRRLGFSLEEIREMIEMYDVAGEPEQIRLTLKYGEKKLKEIEEKIRELELLKEDLLNLREMLVKRLEELEKGS", "values": [{"measurement": "soluble on expression in E. coli", "value": "not soluble"}]}
